Common to all, as to experiment: competitive cell adhesion assay
For experiment [1], the target named is integrins on WM-115 cells (mainly integrin α5β1, αVβ3, and αVβ5).
Experiment [2] shares this target. The source holds these as a separate data set.
Experiment [3] shares this target. The source holds these as a separate data set.
For experiment [4] the target is unchanged. The source holds these as a separate data set.
Experiment [5] has the same target. The source holds these as a separate data set.
Experiment [6] shares this target. This is another data set of the same source.

Where two headings read alike, the source gives them in different places.

B1: cyclopeptide-5 c-(-FEANe-) (peptide)
peptide: FEANE
HELM: PEPTIDE1{F.E.A.N.[dE]}$PEPTIDE1,PEPTIDE1,1:R1-5:R2$$$V2.0
SMILES: C[C@@H]1NC(=O)[C@H](CCC(=O)O)NC(=O)[C@H](Cc2ccccc2)NC(=O)[C@@H](CCC(=O)O)NC(=O)[C@H](CC(N)=O)NC1=O
One may read the IC50 as the concentration that inhibits the measured activity by half. Take B1: the IC50 in experiment [1], in experiment [2] and in experiment [3] was greater than 1000 µM in each case.

B2: cyclopeptide-1 c-(-fEANE-) (peptide)
peptide: FEANE
HELM: PEPTIDE1{[dF].E.A.N.E}$PEPTIDE1,PEPTIDE1,1:R1-5:R2$$$V2.0
SMILES: C[C@@H]1NC(=O)[C@H](CCC(=O)O)NC(=O)[C@@H](Cc2ccccc2)NC(=O)[C@H](CCC(=O)O)NC(=O)[C@H](CC(N)=O)NC1=O
B2: the IC50 in experiment [1] was greater than 1000 µM; in experiment [2] it was 43 to 340 µM; in experiment [3] it was greater than 1000 µM.

ANFEANELFFISEDV [linear peptide 6 (…)]: the IC50 in experiment [1] was greater than 1000 µM; in experiment [2], 9 µM; in experiment [3], 239 µM.

B3: cyclopeptide-4 c-(-FEAnE-) (peptide)
peptide: FEANE
HELM: PEPTIDE1{F.E.A.[dN].E}$PEPTIDE1,PEPTIDE1,1:R1-5:R2$$$V2.0
SMILES: C[C@@H]1NC(=O)[C@H](CCC(=O)O)NC(=O)[C@H](Cc2ccccc2)NC(=O)[C@H](CCC(=O)O)NC(=O)[C@@H](CC(N)=O)NC1=O
Turning to B3, the IC50 in experiment [1], in experiment [2] and in experiment [3] was greater than 1000 µM each time.

B4: cyclopeptide-7 c-(-RGDlA-) (peptide)
peptide: RGDLA
HELM: PEPTIDE1{R.G.D.[dL].A}$PEPTIDE1,PEPTIDE1,1:R1-5:R2$$$V2.0
SMILES: CC(C)C[C@H]1NC(=O)[C@H](CC(=O)O)NC(=O)CNC(=O)[C@H](CCCNC(=N)N)NC(=O)[C@H](C)NC1=O
B4: the IC50 is 2.39 µM in experiment [1], 0.88 µM in experiment [4], 1.65 µM in experiment [5] and 0.67 µM in experiment [6].

B5: cyclopeptide-3 c-(-FEaNE-) (peptide)
peptide: FEANE
HELM: PEPTIDE1{F.E.[dA].N.E}$PEPTIDE1,PEPTIDE1,1:R1-5:R2$$$V2.0
SMILES: C[C@H]1NC(=O)[C@H](CCC(=O)O)NC(=O)[C@H](Cc2ccccc2)NC(=O)[C@H](CCC(=O)O)NC(=O)[C@H](CC(N)=O)NC1=O
B5: the IC50 in experiment [1], in experiment [2] and in experiment [3] was greater than 1000 µM in each case.

B6: cyclopeptide-2 c-(-FeANE-) (peptide)
peptide: FEANE
HELM: PEPTIDE1{F.[dE].A.N.E}$PEPTIDE1,PEPTIDE1,1:R1-5:R2$$$V2.0
SMILES: C[C@@H]1NC(=O)[C@@H](CCC(=O)O)NC(=O)[C@H](Cc2ccccc2)NC(=O)[C@H](CCC(=O)O)NC(=O)[C@H](CC(N)=O)NC1=O
With B6, the figures for the IC50 in experiment [1], in experiment [2] and in experiment [3] were greater than 1000 µM, 30 to 530 µM and 54 to 430 µM, respectively.

(Values after paper PMC3417467.)
